This passage reports binding signal (fold of Q104A/N335A), activity and binding signal (fold of Q142A/N370A) results from patent US20130130922.

Data set [1] has as its target T1, M.HpaII (original) (UniProt P15446).
T1 sequence: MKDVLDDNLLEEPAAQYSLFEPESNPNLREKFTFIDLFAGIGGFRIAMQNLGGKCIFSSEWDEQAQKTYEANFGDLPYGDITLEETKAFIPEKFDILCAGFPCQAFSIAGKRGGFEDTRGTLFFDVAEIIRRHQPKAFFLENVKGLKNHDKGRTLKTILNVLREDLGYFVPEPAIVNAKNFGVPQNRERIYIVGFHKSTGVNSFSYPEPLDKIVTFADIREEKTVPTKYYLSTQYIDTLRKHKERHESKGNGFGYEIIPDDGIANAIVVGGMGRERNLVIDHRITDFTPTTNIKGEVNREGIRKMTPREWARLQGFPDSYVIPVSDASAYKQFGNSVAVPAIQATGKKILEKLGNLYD
The settings on record: ~2 orders of magnitude lower transalkylation than double mutant.

Data set [2] has as its target M.SssI Q142A/N370A Q142A,N370A (Spiroplasma sp.?) (UniProt P15840).
Data set [3] has as its target M.SssI (original) (Spiroplasma sp.?) (UniProt P15840). The following applies: transalkylation ~2 orders of magnitude lower than double mutant; AdoMet analogs; DNA for this comparison not explicitly stated.
The target of data set [4] is M.SssI Q142A/N370A Q142A,N370A (Spiroplasma sp.?) (UniProt P15840). The following applies: Ado-6-amine 40 uM, Hin6I protection.
Sequence of M.SssI Q142A/N370A Q142A,N370A (Spiroplasma sp.?) (P15840 whole entry Q142A/N370A): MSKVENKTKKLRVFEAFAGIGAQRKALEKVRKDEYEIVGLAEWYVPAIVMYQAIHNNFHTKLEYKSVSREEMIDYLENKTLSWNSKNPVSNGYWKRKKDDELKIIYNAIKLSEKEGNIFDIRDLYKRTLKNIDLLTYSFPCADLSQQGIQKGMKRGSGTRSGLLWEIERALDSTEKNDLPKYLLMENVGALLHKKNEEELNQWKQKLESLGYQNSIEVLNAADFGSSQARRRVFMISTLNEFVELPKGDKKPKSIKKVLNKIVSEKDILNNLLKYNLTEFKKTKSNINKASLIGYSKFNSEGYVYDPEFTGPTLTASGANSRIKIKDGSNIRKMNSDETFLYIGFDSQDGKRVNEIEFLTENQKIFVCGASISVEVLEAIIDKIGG
For data set [5] the target is unchanged. The following applies: Ado-11-amine 160-320 uM, no Mg, MTase:DNA 3.6:1, Hin6I protection.

Where two headings read alike, the source gives them in different places. Where only a bound is given, the exact number is not on record here.

Sequence of M.SssI (original) (Spiroplasma sp.?) (P15840 whole entry): as the sequence (P15840 whole entry Q142A/N370A) above, with A142Q, A370N counted along it

For DNA with CCGG sites (unspecified), the binding signal (fold of Q104A/N335A) in data set [1] was determined as 0.01.

In the case of “Control-Sss specific fragment (two SssI sites)”, the activity in data set [2] (Ado-6-amine 50 uM, 1450 nM enzyme, 37 C 30 min, with human genomic DNA) worked out at 80 % recovered.

As for 1343 bp DNA fragment with 18 SssI sites, in data set [3], the binding signal (fold of Q142A/N370A) was found to be 0.01. Besides, the activity in data set [4] (10 mM MgCl2, MTase:DNA 2:1, 37 C 2 h) worked out at 30 % protected; in data set [4] (no MgCl2, MTase:DNA 2:1, 37 C 2 h), 70 % protected; in data set [5], 50 % protected.

In data set [2] (nonspecific probe, same conditions), “Control-Sss nonspecific fragment (no target sites)” gave an activity of less than 1 % recovered.
